Target: the molecule itself
Assay: SEC

B1: F420-dependent methylene-tetrahydromethanopterin reductase (Mer) from Methanocaldococcus jannaschii (enzyme, UniProt Q58929 1-331, looked up)
chain: MKFGIEFVPNEPIQKLCYYVKLAEDNGFEYCWITDHYNNRNVYMALTAIAMNTNKIKLGPGVTNPYVRSPAITASAIATLDELSGGRAVLGIGPGDKATFDALGIEWVKPVTTLKESIEVIRKLLAGERVSYEGKVVKIAGAALAVKPIQKAVPVYMGAQGPKMLETAGMIADGVLINASNPKDFEAAIPLIKKGAEAAGRSMDEIDVAAYACMSVDKNADKAKQAAVPVVAFIAAGSPPVVLERHGIDMEKVEAIRNALKSGNFPEAFKNVDDTMLEAFSIYGTPEDVVEKCKKLAEMGVTQIVAGSPIGPNKETAIKLIGKKVIPALKE
For B1, the “stoichiometry N” value was 2.

Source: paper doi:10.1101/2023.09.18.558202 (bioRxiv, 2023)
